Our source for the binding result and Kd values is PMC1334386 (PLoS Biology, 2006).

Common to all, as to conditions: both partners purified
Assay [1] deals with T1, HAUSP TRAF-like domain (residues 53–206) (UniProt Q93009 53-206).
T1 construct: Cloned into pGEX-2T; source: E. coli BL21(DE3), purified to homogeneity
As to the kind of experiment: SEC; gel filtration on Superdex-200 (10/30); proteins incubated at 4 °C for at least 45 min; 25 mM Tris (pH 8.0), 100 mM NaCl, 2 mM DTT; fractions on SDS-PAGE, Coomassie.

In assay [2] the target is T2, HAUSP TRAF-like domain (residues 1–206) (UniProt Q93009 1-206).
T2 construct: Construct not described in the methods; source: purified to homogeneity as previously described
The description is as above.

For assay [3], the target named is T1, HAUSP TRAF-like domain (residues 53–206). As to the kind of experiment: ITC; 10 mM HEPES (pH 8.0), 100 mM NaCl; 4 °C. For orientation: In ITC the heat of successive injections is recorded.

T1 sequence (Q93009 53-206): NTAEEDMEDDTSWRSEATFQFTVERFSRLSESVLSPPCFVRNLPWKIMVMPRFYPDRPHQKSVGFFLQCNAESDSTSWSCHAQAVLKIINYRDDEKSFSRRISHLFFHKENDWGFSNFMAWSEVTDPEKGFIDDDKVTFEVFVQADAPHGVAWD
T2 sequence (Q93009 1-206): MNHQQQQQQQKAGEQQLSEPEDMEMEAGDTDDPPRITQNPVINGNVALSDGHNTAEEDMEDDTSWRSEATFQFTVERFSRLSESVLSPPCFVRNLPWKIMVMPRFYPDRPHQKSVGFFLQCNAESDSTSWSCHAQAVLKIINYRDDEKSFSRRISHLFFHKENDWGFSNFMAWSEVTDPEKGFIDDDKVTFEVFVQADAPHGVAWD

B1: MDM2 fragment (residues 223–289) (domain or fragment, human, UniProt Q00987 223-289, looked up)
chain: DLDAGVSEHSGDWLDQDSVSDQFSVEFEVESLDSEDYSLSEEGQELSDEDDEVYQVTVYQAGESDTD
notes: source: purified to homogeneity as previously described
Turning to B1, the binding result in assay [1] is “binds”.

B2: MDM2 (residues 208–289) (domain or fragment, human, UniProt Q00987 208-289, looked up)
chain: ERSSSSESTGTPSNPDLDAGVSEHSGDWLDQDSVSDQFSVEFEVESLDSEDYSLSEEGQELSDEDDEVYQVTVYQAGESDTD
notes: also called MDM2 fragment; source: purified to homogeneity as previously described
B2: the binding result in assay [2] is “binds”.

B3: MDM2 peptide (residues 208–242) (peptide, UniProt Q00987 208-242, looked up)
peptide: ERSSSSESTGTPSNPDLDAGVSEHSGDWLDQDSVS
notes: human MDM2, residues 208-242; also called MDM2 (residues 208–242) peptide
Consider B3, for which, in assay [3], the dissociation constant Kd turned out to be 3000 nM.

B4: MDM2 fragment (residues 170–232) (domain or fragment, human, UniProt Q00987 170-232, looked up)
chain: ENSDELSGERQRKRHKSDSISLSFDESLALCVIREICCERSSSSESTGTPSNPDLDAGVSEHS
notes: as for B1
Take B4: in assay [1], the binding result was “binds”.

A word on the Kd: it is the free concentration of one partner at which half of the binding sites on the other are occupied at equilibrium, for simple one-to-one binding. Lower therefore signals a tighter complex.
